Test results as given in publication PMC5523735.
Read-outs that look alike come from different tables or passages of the source.

Tests used:
[1] = proBNP/BNP ratio in NRVM medium; conditions: glycan lost
[2] = proBNP/BNP ratio in human iPS-CM medium; conditions: glycan lost; control: control oligo
[3] = gel filtration: proBNP peak relative to mature BNP peak; conditions: glycan lost; control: WT-proBNP
[4] = proBNP/BNP ratio in cardiac fibroblast medium; conditions: glycan lost; control: WT-proBNP
[5] = control: control oligo, WT-proBNP

| Substance | other: proteolytic processing ([1]; control: WT-proBNP) | other (O-glycosylation other at T48) | other (O-glycosylation other at T71) | other results |
| --- | --- | --- | --- | --- |
| human proBNP (prohormone for brain natriuretic peptide): GALNT1 siRNA | – | – | – | other: proteolytic processing [1, 5]: increases; other: proteolytic processing [2]: increases |
| human proBNP (prohormone for brain natriuretic peptide): GALNT2 siRNA | – | – | – | other: proteolytic processing [1, 5]: increases; other: proteolytic processing [2]: increases |
| human proBNP (prohormone for brain natriuretic peptide): T48/T71glyco | increases | – | – | – |
| human proBNP (prohormone for brain natriuretic peptide): T48A | increases | – | – | other: proteolytic processing [3]: increases; other: proteolytic processing [4]: increases |
| human proBNP (prohormone for brain natriuretic peptide): T48A/T71A | increases | – | – | – |
| human proBNP (prohormone for brain natriuretic peptide): T71A | increases | – | – | other: proteolytic processing [3]: increases; other: proteolytic processing [4]: increases |
| human proBNP (prohormone for brain natriuretic peptide): non-glyco | increases | – | – | – |
| proBNP (prohormone for brain natriuretic peptide): GALNT1 or GALNT2 siRNA knockdown | – | increases | increases | – |
| proBNP (prohormone for brain natriuretic peptide): T48/T71glyco (T36A, S37A, S44A, S53A, T58A) | – | – | – | other (O-glycosylation other at S37): increases; other (O-glycosylation other at S44): increases; other (O-glycosylation other at S53): increases; other (O-glycosylation other at T36): increases; other (O-glycosylation other at T58): increases |
| proBNP (prohormone for brain natriuretic peptide): T48A | – | increases | – | – |
| proBNP (prohormone for brain natriuretic peptide): T48A (cardiac fibroblasts) | – | increases | – | – |
| proBNP (prohormone for brain natriuretic peptide): T48A/T71A | – | increases | increases | – |
| proBNP (prohormone for brain natriuretic peptide): T71A | – | – | increases | – |
| proBNP (prohormone for brain natriuretic peptide): T71A (cardiac fibroblasts) | – | – | increases | – |
| proBNP (prohormone for brain natriuretic peptide): non-glyco versus T48glyco (only Thr48 preserved, other 6 sites Ala) | – | increases | – | – |
| proBNP (prohormone for brain natriuretic peptide): non-glyco versus T71glyco (only Thr71 preserved, other 6 sites Ala) | – | – | increases | – |
